We go through one molecule from CN113956356A (FUZHOU MAIXIN BIOTECHNOLOGY DEV CO LTD, dated 2022).

This experiment deals with T1, 人PRL蛋白 (native prolactin in pituitary tumour tissue sections) (human, UniProt P01236 29-227).
T1 construct: Endogenous protein detected by immunohistochemistry in paraffin sections of pituitary tumours; also called 催乳素
T1 sequence (looked up): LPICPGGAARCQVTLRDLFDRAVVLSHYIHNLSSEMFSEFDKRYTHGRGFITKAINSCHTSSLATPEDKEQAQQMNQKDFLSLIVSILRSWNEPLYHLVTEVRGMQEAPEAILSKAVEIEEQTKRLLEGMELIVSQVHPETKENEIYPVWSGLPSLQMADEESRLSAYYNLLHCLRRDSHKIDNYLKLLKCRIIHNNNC
Put plainly: immunohistochemistry on 9 pituitary tumour sections.

B1: 抗PRL蛋白单克隆抗体(2C10D5H11) (antibody, V domains shown)
VH: QIQLVQSGPELKKPGETVKISCKASGYSFTNSAMSWVHQAPGKGLKWMGFINTKTGEPTYVEEFRGRFVFSLETSASTAYLQINNLKNEDTATYFCAKETDNSDDYWGQGTTLTVSS
VL: QIVLTQSPAIMSASPGEMVTLTCSASSSVSSSYLYWYQQKPGSSPKLWIYSTSNLASGVPARFSGSGSGTSYSLTISSMEAEDAASYFCHQWSSYPPTFGGGTKLEIK
notes: also called anti-PRL monoclonal antibody; antibody of hybridoma CGMCC NO.22311
With B1, the binding result is recorded as “binds”.
